These results are taken from patent publication US10239925B2, “Peptides and combination of peptides for use in immunotherapy against ovarian cancer and other cancers” (IMMATICS BIOTECHNOLOGIES GMBH, priority 2015, dated 2019).

For the assay, the target named is HLA-A*02:01 (Homo sapiens, UniProt P04439, D140Y/D185E/D98H/E176V/E277Q/G131W/G231S/I119V/I121R/I166T/I218V/L300P/L318F/N151K/N90K/P208A/P217A/Q86G/Q94H/R138H/R169H/T345S). In words: MHC binding assay (UV-ligand exchange, anti-β2m ELISA, peptide exchange yield). To be noted: binding to HLA-A*02:01. The text has this:
Candidate peptides for T cell based therapies according to the present invention were further tested for their MHC binding capacity (affinity). The individual peptide-MHC complexes were produced by UV-ligand exchange, where a UV-sensitive peptide is cleaved upon UV-irradiation, and exchanged with the peptide of interest as analyzed. Only peptide candidates that can effectively bind and stabilize the peptide-receptive MHC molecules prevent dissociation of the MHC complexes. To determine the yield of the exchange reaction, an ELISA was performed based on the detection of the light chain (β2m) of stabilized MHC complexes. The assay was performed as generally described in Rodenko et al. (Rodenko et al., 2006).
96 well MAXISorp plates (NUNC) were coated over night with 2 ug/ml streptavidin in PBS at room temperature, washed 4× and blocked for 1h at 37° C. in 2% BSA containing blocking buffer. […] Peptide-MHC monomers of the UV-exchange reaction were diluted 100 fold in blocking buffer. Samples were incubated for 1 h at 37° C., washed four times, incubated with 2 ug/ml HRP conjugated anti-β2m for 1h at 37° C., washed again and detected with TMB solution that is stopped with […]. Absorption was measured at 450 nm. Candidate peptides that show a high exchange yield (preferably higher than 50%, most preferred higher than 75%) are generally preferred for a generation and production of antibodies or fragments thereof, and/or T cell receptors or fragments thereof, as they show sufficient avidity to the MHC molecules and prevent dissociation of the MHC complexes.

In the case of “130 (FLWNGEDSALL; listed as Homo sapiens) [compound 130]”, the “Peptide exchange (MHC class I binding score, peptide exchange yield)” value (shortened to “Peptide exchange”) was ““+++” (>50 = +++)”.

For the substance “131 (FVPPVTVFPSL; listed as Homo sapiens) [compound 131]”, the “Peptide exchange” value is ““++” (>20% = ++)”.

Consider “132 (LLVEQPPLAGV; listed as Homo sapiens) [compound 132]”, for which the “Peptide exchange” value is ““+++” (>50 = +++)”.

In the case of “133 (KVLSNIHTV; listed as Homo sapiens) [compound 133]”, the “Peptide exchange” value is listed as ““++” (>20% = ++)”.

Take “134 (YLQELIFSV; listed as Homo sapiens) [compound 134]”: the “Peptide exchange” value is reported as ““+++” (>50 = +++)”.

Consider “135 (ALSEVDFQL; listed as Homo sapiens) [compound 135]”, for which the “Peptide exchange” value was ““+++” (>50 = +++)”.

“136 (YLADPSNLFVV; listed as Homo sapiens) [compound 136]”: the “Peptide exchange” value was ““+++” (>50 = +++)”.

Turning to “137 (TLVLTLPTV; listed as Homo sapiens) [compound 137]”, the “Peptide exchange” value is given as ““++++” (>75% = ++++)”.

In the case of “138 (YQYPRAILSV; listed as Homo sapiens) [compound 138]”, the “Peptide exchange” value is given as ““+++” (>50 = +++)”.

Consider “139 (SVMEVNSGIYRV; listed as Homo sapiens) [compound 139]”, for which the “Peptide exchange” value is ““+++” (>50 = +++)”.

In the case of “140 (YMDAPKAAL; listed as Homo sapiens) [compound 140]”, the “Peptide exchange” value is listed as ““++” (>20% = ++)”.

“142 (FLFATPVFI; listed as Homo sapiens) [compound 142]”: the “Peptide exchange” value was ““+++” (>50 = +++)”.

For the substance “144 (YIMEPSIFNTL; listed as Homo sapiens) [compound 144]”, the “Peptide exchange” value is reported as ““+++” (>50 = +++)”.

As to “145 (FLATSGTLAGI; listed as Homo sapiens) [compound 145]”, the “Peptide exchange” value is ““++” (>20% = ++)”.

As to “146 (SLATAGDGLIEL; listed as Homo sapiens) [compound 146]”, the “Peptide exchange” value is ““++” (>20% = ++)”.

On to “147 (SLLEAVSFL; listed as Homo sapiens) [compound 147]”, for which the “Peptide exchange” value is ““+++” (>50 = +++)”.

As for “148 (ALNPEIVSV; listed as Homo sapiens) [compound 148]”, the “Peptide exchange” value is ““++” (>20% = ++)”.

For “149 (NLLELFVQL; listed as Homo sapiens) [compound 149]”, the “Peptide exchange” value was ““+++” (>50 = +++)”.

As for “151 (KILQQLVTL; listed as Homo sapiens) [compound 151]”, the “Peptide exchange” value is recorded as ““+++” (>50 = +++)”.

Take “153 (FLIANVLYL; listed as Homo sapiens) [compound 153]”: the “Peptide exchange” value is ““+” (>10% = +)”.

“154 (ALDDGTPAL; listed as Homo sapiens) [compound 154]”: the “Peptide exchange” value was ““++” (>20% = ++)”.

On to “155 (RVANLHFPSV; listed as Homo sapiens) [compound 155]”, for which the “Peptide exchange” value is reported as ““+++” (>50 = +++)”.

As to “158 (KLFDVDEDGYI; listed as Homo sapiens) [compound 158]”, the “Peptide exchange” value was ““+++” (>50 = +++)”.

Turning to “159 (GLVGNPLPSV; listed as Homo sapiens) [compound 159]”, the “Peptide exchange” value was ““++++” (>75% = ++++)”.

Consider “160 (FLFDEEIEQI; listed as Homo sapiens) [compound 160]”, for which the “Peptide exchange” value is listed as ““+++” (>50 = +++)”.

On to “161 (ALLEGVNTV; listed as Homo sapiens) [compound 161]”, for which the “Peptide exchange” value is ““+++” (>50 = +++)”.

Regarding “162 (YQQAQVPSV; listed as Homo sapiens) [compound 162]”, the “Peptide exchange” value was ““+++” (>50 = +++)”.

“163 (ALDEMGDLLQL; listed as Homo sapiens) [compound 163]”: the “Peptide exchange” value is ““+++” (>50 = +++)”.

With “164 (ALLPQPKNLTV; listed as Homo sapiens) [compound 164]”, the “Peptide exchange” value is reported as ““+++” (>50 = +++)”.

As to “165 (SLLDEIRAV; listed as Homo sapiens) [compound 165]”, the “Peptide exchange” value was ““+++” (>50 = +++)”.

Regarding “167 (KVLEVTEEFGV; listed as Homo sapiens) [compound 167]”, the “Peptide exchange” value is listed as ““+++” (>50 = +++)”.

As to “168 (KILDADIQL; listed as Homo sapiens) [compound 168]”, the “Peptide exchange” value was ““++++” (>75% = ++++)”.

As to “169 (NLPEYLPFV; listed as Homo sapiens) [compound 169]”, the “Peptide exchange” value is ““+++” (>50 = +++)”.

With “170 (RLQETLSAA; listed as Homo sapiens) [compound 170]”, the “Peptide exchange” value was ““+++” (>50 = +++)”.

On to “171 (LLLPLQILL; listed as Homo sapiens) [compound 171]”, for which the “Peptide exchange” value is ““+++” (>50 = +++)”.

As for “172 (VLYSYTIITV; listed as Homo sapiens) [compound 172]”, the “Peptide exchange” value was ““++” (>20% = ++)”.

“173 (LLDSASAGLYL; listed as Homo sapiens) [compound 173]”: the “Peptide exchange” value is ““+++” (>50 = +++)”.

As to “174 (ALAQYLITA; listed as Homo sapiens) [compound 174]”, the “Peptide exchange” value is ““+++” (>50 = +++)”.

As to “175 (YLFENISQL; listed as Homo sapiens) [compound 175]”, the “Peptide exchange” value is given as ““+++” (>50 = +++)”.

Consider “176 (YLMEGSYNKVFL; listed as Homo sapiens) [compound 176]”, for which the “Peptide exchange” value was ““++” (>20% = ++)”.

In the case of “177 (YLLPEEYTSTL; listed as Homo sapiens) [compound 177]”, the “Peptide exchange” value is ““++++” (>75% = ++++)”.

“178 (ALTEIAFVV; listed as Homo sapiens) [compound 178]”: the “Peptide exchange” value was ““++++” (>75% = ++++)”.

Consider “179 (KVLNELYTV; listed as Homo sapiens) [compound 179]”, for which the “Peptide exchange” value is listed as ““+++” (>50 = +++)”.

On to “180 (FQIDPHSGLVTV; listed as Homo sapiens) [compound 180]”, for which the “Peptide exchange” value is listed as ““++” (>20% = ++)”.

As to “181 (LLWAGTAFQV; listed as Homo sapiens) [compound 181]”, the “Peptide exchange” value was ““+++” (>50 = +++)”.

Consider “182 (MLLEAPGIFL; listed as Homo sapiens) [compound 182]”, for which the “Peptide exchange” value is given as ““+++” (>50 = +++)”.

For “183 (FGLDLVTEL; listed as Homo sapiens) [compound 183]”, the “Peptide exchange” value is recorded as ““+++” (>50 = +++)”.

In the case of “184 (YLMDINGKMWL; listed as Homo sapiens) [compound 184]”, the “Peptide exchange” value is reported as ““+++” (>50 = +++)”.

On to “185 (FLIDDKGYTL; listed as Homo sapiens) [compound 185]”, for which the “Peptide exchange” value is ““++” (>20% = ++)”.

Consider “186 (TLFFQQNAL; listed as Homo sapiens) [compound 186]”, for which the “Peptide exchange” value is ““++” (>20% = ++)”.

For the substance “187 (RQISIRGIVGV; listed as Homo sapiens) [compound 187]”, the “Peptide exchange” value is given as ““+++” (>50 = +++)”.

As for “188 (GLFPVTPEAV; listed as Homo sapiens) [compound 188]”, the “Peptide exchange” value was ““+++” (>50 = +++)”.

For the substance “189 (ALQRKLPYV; listed as Homo sapiens) [compound 189]”, the “Peptide exchange” value is ““+++” (>50 = +++)”.

With “190 (FLSSLTETI; listed as Homo sapiens) [compound 190]”, the “Peptide exchange” value was ““+++” (>50 = +++)”.

Take “192 (KMLDGASFTL; listed as Homo sapiens) [compound 192]”: the “Peptide exchange” value is given as ““+++” (>50 = +++)”.

For the substance “193 (QLLDADGFLNV; listed as Homo sapiens) [compound 193]”, the “Peptide exchange” value is given as ““+++” (>50 = +++)”.
